Experimental data: the RNAGym collection of RNA variant scans (doi:10.1021/acssynbio.7b00057)

B1: Pistol ribozyme (parent)
chain: GGGUCGUUGUUCCAUAAUCGCGUGGAUAUGGCACGCAAGUUUCUACCGGGCACCGUAAAUGUCCGACUGGAGCCGUUCGGGCGGCUAUAAACAGACCUCAGGCCCGAAGCGUGGCGGCACCUGCCGCCGGUGGUAAAAAAGAUCGGAAGAGCACACGUCU

Variants of: B1
Assay: aptazyme ON/OFF ratio, guanine; higher = stronger switching; co-transcriptional cleavage with and without guanine

| Variant | aptazyme ON/OFF ratio |
| --- | --- |
| U7G G9U U10G U11G C12A C13A | 1.11 |
| U7G G9U U10G U11G C12A C13G | 1.07 |
| U7G G9U U11G C13G | 1.3 |
| U7G G9U U11G C13U | 1.26 |
| U7G G9U U11G C13A | 1.3 |
| U7G U8A G9A | 2.45 |
| U7G G9U U11G C12A C13U | 1.26 |
| U7G G9U U11G C12A C13G | 1.2 |
| U7G G9U U11G C12A C13A | 1.11 |
| U7G U8A C12A C13A | 1.27 |
| U7G U8A C12A C13G | 1.14 |
| U7G U8A C12A C13U | 1.23 |
| U7G G9U U10C U11G C12G C13A | 1.13 |
| U7G G9U U10C U11G C12G C13U | 1.06 |
| U7G G9U U10C U11G C12G C13G | 1.12 |
| U7G U8A G9A U10A C12U C13U | 1.03 |
| U7G U8A G9A U10A C12U C13A | 1.13 |
| U7G U8A G9A U10A C12U C13G | 1.07 |
| U7G U8A G9A C12G | 1.18 |
| U7G U8A G9A C12U | 1.12 |
| U7G U8A G9A C12A | 1.06 |
| U7G U8A G9A U10C C12A C13A | 1.07 |
| U7G U8A G9A U10C C12A C13G | 1.06 |
| U7G U8A G9A U10C C12A C13U | 1.08 |

| Variant | aptazyme ON/OFF ratio |
| --- | --- |
| U7G G9U U10C U11C | 1.42 |
| U7G G9U U10C U11A | 3.43 |
| U7G G9U U10C U11G | 2.9 |
| U7G U8A G9A U10G C12G C13G | 1.09 |
| U7G U8A G9A U10G C12G C13A | 1.1 |
| U7G U8A G9A U10G C12G C13U | 1.23 |
| U7G U8A C12A | 1.27 |
| U7G U8A C12U | 1.44 |
| U7G U8A C12G | 1.35 |
| U7G G9U U10C U11C C12A C13A | 1.37 |
| U7G G9U U10C U11C C12A C13G | 1.4 |
| U7G G9U U10C U11C C12A C13U | 1.47 |
| U7G G9U U10G C12A C13U | 1.41 |
| U7G G9U U10G C12A C13G | 1.12 |
| U7G G9U U10G C12A C13A | 1.12 |
| U7G G9U U10G U11C C12G | 1.48 |
| U7G G9U U10G U11C C12A | 1.62 |
| U7G G9U U10G U11C C12U | 1.17 |
| U7G G9U U10G U11A C12A C13G | 1.06 |
| U7G G9U U10G U11A C12A C13U | 1.16 |
| U7G G9U U10G U11A C12A C13A | 1.16 |
| U7G G9U U10C U11A C12U | 1.8 |
| U7G G9U U10C U11A C12A | 1.58 |
| U7G G9U U10C U11A C12G | 1.57 |

| Variant | aptazyme ON/OFF ratio |
| --- | --- |
| U7G U8A G9A U10A C12U | 1.19 |
| U7G U8A G9A U10A C12A | 1.17 |
| U7G U8A G9A U10A C12G | 1.19 |
| U7G G9U U10G U11A C12A | 1.15 |
| U7G G9U U10G U11A C12U | 1.27 |
| U7G G9U U10G U11A C12G | 1.26 |
| U7G G9U U10G | 3.04 |
| U7G G9U U11G C12U C13A | 1.31 |
| U7G G9U U11G C12U C13U | 1.44 |
| U7G G9U U11G C12U C13G | 1.37 |
| U7G U8A G9A U10C U11G C12U C13U | 1.12 |
| U7G U8A G9A U10C U11G C12U C13A | 1.1 |
| U7G U8A G9A U10C U11G C12U C13G | 1.14 |
| U7G U8A G9A U10C U11A C12A C13U | 1.13 |
| U7G U8A G9A U10C U11A C12A C13G | 1.07 |
| U7G U8A G9A U10C U11A C12A C13A | 1.2 |
| U7G U8A G9A U10G C13A | 1.08 |
| U7G U8A G9A U10A U11A C13G | 1.06 |
| U7G U8A G9A U10A U11A C13U | 1.23 |
| U7G U8A G9A U10A U11A C13A | 1.09 |
| U7G U8A G9A U10A U11G C12G C13A | 1.1 |
| U7G U8A G9A U10A U11G C12G C13G | 1.12 |
| U7G U8A G9A U10A U11G C12G C13U | 1.17 |
| U7G G9U U10G U11A | 1.23 |

| Variant | aptazyme ON/OFF ratio |
| --- | --- |
| U7G G9U U10G U11G | 1.74 |
| U7G G9U U10G U11C | 1.13 |
| U7G U8A G9A U10A C12G C13U | 1.1 |
| U7G U8A G9A U10A C12G C13G | 1.09 |
| U7G U8A G9A U10A C12G C13A | 1.06 |
| U7G G9U U11G C12A | 1.82 |
| U7G G9U U11G C12U | 1.2 |
| U7G G9U U11G C12G | 1.74 |
| U7G U8A G9A U10G C12A | 1.32 |
| U7G U8A G9A U10G C12G | 1.09 |
| U7G U8A G9A U10G C12U | 1.52 |
| U7G G9U U10G U11G C13U | 1.3 |
| U7G G9U U10G U11G C13A | 1.22 |
| U7G G9U U10G U11G C13G | 1.18 |
| U7G G9U U10G U11A C12U C13U | 1.23 |
| U7G G9U U10G U11A C12U C13G | 1.17 |
| U7G G9U U10G U11A C12U C13A | 1.17 |
| U7G U8A G9A U10A U11G C12U C13U | 1.15 |
| U7G U8A G9A U10A U11G C12U C13G | 1.24 |
| U7G U8A G9A U10A U11G C12U C13A | 1.07 |
| U7G U8A G9A U10G C12A C13U | 1.37 |
| U7G U8A G9A U10G C12A C13G | 1.06 |
| U7G U8A G9A U10G C12A C13A | 1.18 |
| U7G G9U U11C C12U | 2.32 |

| Variant | aptazyme ON/OFF ratio |
| --- | --- |
| U7G G9U U11C C12A | 1.61 |
| U7G G9U U11C C12G | 1.74 |
| U7G G9U U10C U11G C13A | 1.32 |
| U7G G9U U10C U11G C13G | 1.22 |
| U7G G9U U10C U11G C13U | 1.38 |
| U7G U8A G9A U10A C12A C13U | 1.14 |
| U7G U8A G9A U10A C12A C13G | 1.12 |
| U7G U8A G9A U10A C12A C13A | 1.2 |
| U7G U8A G9A U10C C12G | 1.15 |
| U7G U8A G9A U10C C12U | 1.09 |
| U7G U8A G9A U10C C12A | 1.1 |
| U7G U8A G9A U10A U11G C13G | 1.07 |
| U7G U8A G9A U10A U11G C13U | 1.16 |
| U7G U8A G9A U10A U11G C13A | 1.14 |
| U7G U8A G9A U10C U11A | 1.4 |
| U7G U8A G9A U10C U11G | 1.24 |
| U7G U8A G9A U10C U11C | 1.06 |
| U7G U8A G9A U10A U11A | 1.45 |
| U7G U8A G9A U10A U11C | 1.03 |
| U7G U8A G9A U10A U11G | 1.28 |
| U7G U8A C12G C13U | 1.46 |
| U7G U8A C12G C13G | 1.17 |
| U7G U8A C12G C13A | 1.51 |
| U7G U8A G9A U10C U11G C13G | 1.15 |

| Variant | aptazyme ON/OFF ratio |
| --- | --- |
| U7G U8A G9A U10C U11G C13U | 1.09 |
| U7G U8A G9A U10C U11G C13A | 1.14 |
| U7G G9U U11A C12U C13G | 1.27 |
| U7G G9U U11A C12U C13U | 1.07 |
| U7G G9U U11A C12U C13A | 1.25 |
| U7G U8A G9A U10A U11A C12U C13U | 1.19 |
| U7G U8A G9A U10A U11A C12U C13G | 1.12 |
| U7G U8A G9A U10A U11A C12U C13A | 1.15 |
| U7G U8A G9A U10A U11G C12U | 1.65 |
| U7G U8A G9A U10A U11G C12A | 1.06 |
| U7G U8A G9A U10A U11G C12G | 1.2 |
| U7G U8A G9A U10C U11A C12A | 1.12 |
| U7G U8A G9A U10C U11A C12U | 1.08 |
| U7G U8A G9A U10C U11A C12G | 1.15 |
| U7G G9U U10G C13A | 1.39 |
| U7G G9U U10G C13G | 1.21 |
| U7G G9U U10G C13U | 1.48 |
| U7G G9U U10C U11C C12G C13G | 1.2 |
| U7G G9U U10C U11C C12G C13A | 1.17 |
| U7G G9U U10C U11C C12G C13U | 1.31 |
| U7G G9U U10G U11G C12U C13A | 1.22 |
| U7G G9U U10G U11G C12U C13G | 1.05 |
| U7G G9U U10G U11G C12U C13U | 1.29 |
| U7G G9U U10C U11A C12A C13G | 1.16 |

| Variant | aptazyme ON/OFF ratio |
| --- | --- |
| U7G G9U U10C U11A C12A C13U | 1.36 |
| U7G G9U U10C U11A C12A C13A | 1.22 |
| U7G G9U U10G U11C C12U C13U | 1.44 |
| U7G G9U U10G U11C C12U C13A | 1.23 |
| U7G G9U U10G U11C C12U C13G | 1.25 |
| U7G G9U U10G C12A | 1.7 |
| U7G G9U U10G C12U | 1.55 |
| U7G G9U U10G C12G | 1.36 |
| U7G G9U U11A C12G C13U | 1.36 |
| U7G G9U U11A C12G C13A | 1.1 |
| U7G G9U U11A C12G C13G | 1.23 |
| U7G G9U U11G C12G C13U | 1.29 |
| U7G G9U U11G C12G C13G | 1.21 |
| U7G G9U U11G C12G C13A | 1.19 |
| U7G G9U U10G C12G C13A | 1.15 |
| U7G G9U U10G C12G C13G | 1.2 |
| U7G G9U U10G C12G C13U | 1.4 |
| U7G G9U U10G U11A C12G C13G | 1.17 |
| U7G G9U U10G U11A C12G C13U | 1.18 |
| U7G G9U U10G U11A C12G C13A | 1.19 |
| U7G U8A G9A C12G C13A | 1.13 |
| U7G U8A G9A C12G C13G | 1.04 |
| U7G U8A G9A C12G C13U | 1.11 |
